Substrate in this series: CCn1c(=NN=c2sc3cc(S(=O)(=O)O)ccc3n2CC)sc2cc(S(=O)(=O)O)ccc21
Kind of series: purified protein. The format is biochemical, Pleurotus ostreatus. Conditions: 50 μL of 1 mM H2O2 in 200 μL (0.25 mM), 0.1 M citric acid–0.2 M Na2HPO4 pH 3.4, ambient temperature.

By Km is commonly meant the substrate concentration at which the rate is half of its maximum. The term kcat denotes the maximal rate divided by the concentration of active sites. As a reminder, the kcat/Km is the turnover number divided by the Michaelis constant.

B1: DyP4 (dye-decolorizing peroxidase 4) (Pleurotus ostreatus PC15) (protein)
chain: MTTPAPPLDLNNIQGDILGGLPKRTETYFFFDVTNVDQFKANMAHFIPHIKTSAGIIKDREAIKEHKRQKKPGLVPMAAVNVSFSHLGLQKLGITDDLSDNAFTTGQRKDAEILGDPGSKNGDAFTPAWEAPFLKDIHGVIFVAGDCHGSVNKKLDEIKHIFGVGTSHASISEVTHVRGDVRPGDVHAHEHFGFLDGISNPAVEQFDQNPLPGQDPIRPGFILAKENGDSRAAARPDWAKDGSFLTFRYLFQMVPEFDDFLESNPIVLPGLSRKEGSELLGARIVGRWKSGAPIEITPLKDDPKLAADAQRNNKFDFGDSLVRGDQTKCPFAAHIRKTYPRNDLEGPPLKADIDNRRIIRRGIQFGPEVTSQEHHDKKTHHGRGLLFVCYSSSIDDGFHFIQESWANAPNFPVNAVTSAGPIPPLDGVVPGFDAIIGQKVGGGIRQISGTNPNDPTTNITLPDQDFVVPRGGEYFFSPSITALKTKFAIGVASPAPHSQAPISA
notes: DyP4 without OsmY fusion, pET-24a(+)-DyP4 (NdeI/EcoRI), codon-optimized, untagged, E. coli BL21 (DE3), ion-exchange and SEC purified; forward primer encodes MTTPAPPL
Take B1: the Michaelis constant (Km) is 895 ± 65 µM, the kcat turned out to be 3.86 ± 0.08 s⁻¹ and the catalytic efficiency (kcat/Km) was 4310 ± 410 M⁻¹ s⁻¹.

B2: DyP4 (dye-decolorizing peroxidase 4) (Pleurotus ostreatus PC15; I56V/K109R/N312S) (protein)
chain: MTTPAPPLDLNNIQGDILGGLPKRTETYFFFDVTNVDQFKANMAHFIPHIKTSAGVIKDREAIKEHKRQKKPGLVPMAAVNVSFSHLGLQKLGITDDLSDNAFTTGQRRDAEILGDPGSKNGDAFTPAWEAPFLKDIHGVIFVAGDCHGSVNKKLDEIKHIFGVGTSHASISEVTHVRGDVRPGDVHAHEHFGFLDGISNPAVEQFDQNPLPGQDPIRPGFILAKENGDSRAAARPDWAKDGSFLTFRYLFQMVPEFDDFLESNPIVLPGLSRKEGSELLGARIVGRWKSGAPIEITPLKDDPKLAADAQRSNKFDFGDSLVRGDQTKCPFAAHIRKTYPRNDLEGPPLKADIDNRRIIRRGIQFGPEVTSQEHHDKKTHHGRGLLFVCYSSSIDDGFHFIQESWANAPNFPVNAVTSAGPIPPLDGVVPGFDAIIGQKVGGGIRQISGTNPNDPTTNITLPDQDFVVPRGGEYFFSPSITALKTKFAIGVASPAPHSQAPISA
notes: as for B1
For B2, under “variant 3F6”, the Km was found to be 427 ± 55 µM, the kcat was found to be 5.02 ± 0.15 s⁻¹ and the kcat/Km was determined as 11800 ± 1860 M⁻¹ s⁻¹.

B3: DyP4 (dye-decolorizing peroxidase 4) (Pleurotus ostreatus PC15; I56V/K109R/N227S/N312S) (protein)
chain: MTTPAPPLDLNNIQGDILGGLPKRTETYFFFDVTNVDQFKANMAHFIPHIKTSAGVIKDREAIKEHKRQKKPGLVPMAAVNVSFSHLGLQKLGITDDLSDNAFTTGQRRDAEILGDPGSKNGDAFTPAWEAPFLKDIHGVIFVAGDCHGSVNKKLDEIKHIFGVGTSHASISEVTHVRGDVRPGDVHAHEHFGFLDGISNPAVEQFDQNPLPGQDPIRPGFILAKESGDSRAAARPDWAKDGSFLTFRYLFQMVPEFDDFLESNPIVLPGLSRKEGSELLGARIVGRWKSGAPIEITPLKDDPKLAADAQRSNKFDFGDSLVRGDQTKCPFAAHIRKTYPRNDLEGPPLKADIDNRRIIRRGIQFGPEVTSQEHHDKKTHHGRGLLFVCYSSSIDDGFHFIQESWANAPNFPVNAVTSAGPIPPLDGVVPGFDAIIGQKVGGGIRQISGTNPNDPTTNITLPDQDFVVPRGGEYFFSPSITALKTKFAIGVASPAPHSQAPISA
notes: as for B1
For B3, where the note is “variant 4D4”, the Km came to 390 ± 59 µM, the kcat turned out to be 4.52 ± 0.15 s⁻¹ and the catalytic efficiency (kcat/Km) worked out at 11600 ± 2140 M⁻¹ s⁻¹.

The values above are taken from paper PMC6544594, “Accelerated directed evolution of dye-decolorizing peroxidase using a bacterial extracellular protein secretion system (BENNY)” (Bioresources and Bioprocessing, 2019).
